Target: macrophage scavenger receptors on transfected 293 cells (human macrophage scavenger receptor type I or type II; the filing does not say which)
Experiment: radioligand binding/uptake on transfected HEK 293 cells; about 5 µg/ml, 5 hours at 37° C.

binding/uptake (µg/mg protein): 1.75
Substance: [125I]-acetylated LDL

Reference: patent US5683903
